Results as given in patent publication US20110104112A1 (University of California, published 2011).

Target: T1, IFNAR on 38C13 cells (murine, UniProt P33896 27-590; O35664 22-513)
T1 sequence (looked up) 1: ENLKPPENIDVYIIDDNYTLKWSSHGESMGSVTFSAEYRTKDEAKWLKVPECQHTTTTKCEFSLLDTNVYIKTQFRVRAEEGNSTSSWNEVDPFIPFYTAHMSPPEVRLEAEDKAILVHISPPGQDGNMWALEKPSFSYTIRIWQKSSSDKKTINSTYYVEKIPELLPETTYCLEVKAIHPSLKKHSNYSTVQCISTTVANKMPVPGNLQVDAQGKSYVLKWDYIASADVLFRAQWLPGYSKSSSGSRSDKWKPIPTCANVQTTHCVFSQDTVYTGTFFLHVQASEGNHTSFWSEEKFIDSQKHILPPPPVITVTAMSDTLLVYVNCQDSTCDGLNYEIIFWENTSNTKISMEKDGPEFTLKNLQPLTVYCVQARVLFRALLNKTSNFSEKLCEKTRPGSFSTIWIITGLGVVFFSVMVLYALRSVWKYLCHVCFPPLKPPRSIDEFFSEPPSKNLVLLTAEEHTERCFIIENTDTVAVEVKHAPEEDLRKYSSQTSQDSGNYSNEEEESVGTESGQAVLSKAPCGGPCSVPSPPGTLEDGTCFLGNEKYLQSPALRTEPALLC
T1 sequence (looked up) 2: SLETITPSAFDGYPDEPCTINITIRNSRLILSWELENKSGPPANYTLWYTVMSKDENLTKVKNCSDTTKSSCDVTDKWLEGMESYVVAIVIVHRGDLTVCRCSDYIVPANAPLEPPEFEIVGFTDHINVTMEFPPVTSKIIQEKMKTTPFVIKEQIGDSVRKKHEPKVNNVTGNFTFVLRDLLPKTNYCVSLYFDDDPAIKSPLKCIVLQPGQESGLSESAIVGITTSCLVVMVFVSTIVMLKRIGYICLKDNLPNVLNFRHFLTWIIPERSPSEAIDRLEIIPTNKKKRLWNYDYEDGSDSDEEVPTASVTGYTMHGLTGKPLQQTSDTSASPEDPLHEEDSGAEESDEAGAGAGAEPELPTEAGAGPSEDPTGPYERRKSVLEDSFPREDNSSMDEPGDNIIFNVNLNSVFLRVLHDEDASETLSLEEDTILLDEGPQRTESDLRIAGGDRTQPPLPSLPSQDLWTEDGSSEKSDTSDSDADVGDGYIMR
Assay: cell-based or functional assay

B1: anti-CD20/IgG3-mu-IFN-α (other)
heavy: QVQLQQPGAELVKPGASVKMSCKASGYTFTSYNMHWVKQTPGRGLEWIGAIYPGNGDTSYNQKFKGKATLTADKSSSTAYMQLSSLTSEDSAVYYCARSTYYGGDWYFNVWGAGTTVTVSAASTKGPSVFPLAPCSRSTSGGTAALGCLVKDYFPEPVTVSWNSGALTSGVHTFPAVLQSSGLYSLSSVVTVPSSSLGTQTYTCNVNHKPSNTKVDKRVELKTPLGDTTHTCPRCPEPKSCDTPPPCPRCPEPKSCDTPPPCPRCPEPKSCDTPPPCPRCPAPELLGGPSVFLFPPKPKDTLMISRTPEVTCVVVDVSHEDPEVQFKWYVDGVEVHNAKTKLREEQYNSTFRVVSVLTVLHQDWLNGKEYKCKVSNKALPAPIEKTISKAKGQPREPQVYTLPPSREEMTKNQVSLTCLVKGFYPSDIAVEWESNGQPENNYNTTPPMLDSDGSFFLYSKLTVDKSRWQQGNIFSCSVMHEALHNHYTQKSLSLSPGKSGGGGSCDLPQTHNLRNKRALTLLVQMRRLSPLSCLKDRKDFGFPQEKVDAQQIKKAQAIPVLSELTQQILNIFTSKDSSAAWNATLLDSFCNDLHQQLNDLQGCLMQQVGVQEFPLTQEDALLAVRKYFHRITVYLREKKHSPCAWEVVRAEVWRALSSSANVLGRLREEK
light: QIVLSQSPAILSASPGEKVTMTCRASSSVSYIHWFQQKPGSSPKPWIYATSNLASGVPVRFSGSGSGTSYSLTISRVEAEDAATYYCQQWTSNPPTFGGGTKLEIK
B1 was tested, and the “IC50 (pM) 38C13-CD20, cell viability, MTS assay” value was 76.4 pM and the “IC50 (pM) 38C13-CD20-IFNR Knock Down, cell viability, MTS assay” value was 848 pM.
